Data taken from PMC11539162, “Distinct roles for the domains of the mitochondrial aspartate/glutamate carrier citrin in organellar localization and substrate transport” (Molecular Metabolism, 2024).
Substitutions are numbered along the chain they refer to. Names and notes keep the numbering of the source.

B1: human citrin (mitochondrial aspartate/glutamate carrier isoform 2), full-length wild type (natural protein, UniProt Q9UJS0-1 1-675, looked up)
chain: MAAAKVALTKRADPAELRTIFLKYASIEKNGEFFMSPNDFVTRYLNIFGESQPNPKTVELLSGVVDQTKDGLISFQEFVAFESVLCAPDALFMVAFQLFDKAGKGEVTFEDVKQVFGQTTIHQHIPFNWDSEFVQLHFGKERKRHLTYAEFTQFLLEIQLEHAKQAFVQRDNARTGRVTAIDFRDIMVTIRPHVLTPFVEECLVAAAGGTTSHQVSFSYFNGFNSLLNNMELIRKIYSTLAGTRKDVEVTKEEFVLAAQKFGQVTPMEVDILFQLADLYEPRGRMTLADIERIAPLEEGTLPFNLAEAQRQKASGDSARPVLLQVAESAYRFGLGSVAGAVGATAVYPIDLVKTRMQNQRSTGSFVGELMYKNSFDCFKKVLRYEGFFGLYRGLLPQLLGVAPEKAIKLTVNDFVRDKFMHKDGSVPLAAEILAGGCAGGSQVIFTNPLEIVKIRLQVAGEITTGPRVSALSVVRDLGFFGIYKGAKACFLRDIPFSAIYFPCYAHVKASFANEDGQVSPGSLLLAGAIAGMPAASLVTPADVIKTRLQVAARAGQTTYSGVIDCFRKILREEGPKALWKGAGARVFRSSPQFGVTLLTYELLQRWFYIDFGGVKPMGSEPVPKSRINLPAPNPDHVGGYKLAVATFAGIENKFGLYLPLFKPSVSTSKAIGGGP
notes: human citrin (AGC2), full length, codon-optimised cDNA; UniProt Q9UJS0, isoform NP_055066.1; The tag is followed by a TEV site (ENLYFQG); the protein was released from the resin by TEV digestion; NP_055066.1 is printed for the mammalian construct; the yeast construct is called a codon-optimised cDNA of human citrin; also called AGC2; wild-type citrin; source: S. cerevisiae W303-1B, mitochondria …
B2: human citrin D66A/T68A/D70A/E77A, full-length calcium-binding site mutant (natural protein, UniProt Q9UJS0-1 1-675, looked up)
chain: B1 chain with D66A, T68A, D70A, E77A
notes: Same construct as m1 apart from the four substitutions; also called quadruple alanine mutant; quadruple mutant; source: S. cerevisiae W303-1B, mitochondria solubilised in LMNG, purified (nickel Sepharose, on-column TEV digestion); not shown: His8, N-terminal, cleaved

Molecular target: the molecule itself
Assay: SEC; size exclusion chromatography of purified full-length citrin and of the calcium-binding site mutant; column and buffer not told

Protein | stoichiometry N
B1 | 2
B2 | 2
